Assay [1] concerns the target FcgammaRIIIA (CD16a), F158 allotype (UniProt P08637). Put plainly: SPR.
Assay [2] addresses neonatal Fc receptor (FcRn) (UniProt P55899). Put plainly: SPR pH 6.0, Ab captured on goat anti-human IgG, FcRn flowed.
The target in assay [3] is FcgammaRIIB (CD32b), Y163 allotype (UniProt P31994). The experiment in a line: SPR. (In general: In SPR one partner is held on a chip, and binding of the other changes the refractive index at the surface.)

In patent US20200087414A1 one finds Kd data, which are given here for 23 substances.

Values joined by “and” are separate entries in the source; they are usually repeats but may differ in a detail not shown here. Equal values may be shown once.

Sequence of FcgammaRIIIA (CD16a), F158 allotype (P08637 17-208 limits assumed): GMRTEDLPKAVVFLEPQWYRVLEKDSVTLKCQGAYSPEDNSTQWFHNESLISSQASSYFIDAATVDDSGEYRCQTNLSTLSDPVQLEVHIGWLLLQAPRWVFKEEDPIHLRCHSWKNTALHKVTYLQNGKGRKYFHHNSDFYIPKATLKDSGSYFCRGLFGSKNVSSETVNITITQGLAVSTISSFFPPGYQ
Sequence of FcgammaRIIB (CD32b), Y163 allotype (P31994 43-217 limits assumed): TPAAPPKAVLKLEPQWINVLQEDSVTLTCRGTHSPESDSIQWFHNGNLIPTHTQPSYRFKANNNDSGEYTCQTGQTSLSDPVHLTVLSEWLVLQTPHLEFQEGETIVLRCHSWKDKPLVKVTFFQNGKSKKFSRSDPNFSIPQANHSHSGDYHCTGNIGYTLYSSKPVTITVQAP
Sequence of neonatal Fc receptor (FcRn) (P55899 24-297 limits assumed, chain 1 of 2): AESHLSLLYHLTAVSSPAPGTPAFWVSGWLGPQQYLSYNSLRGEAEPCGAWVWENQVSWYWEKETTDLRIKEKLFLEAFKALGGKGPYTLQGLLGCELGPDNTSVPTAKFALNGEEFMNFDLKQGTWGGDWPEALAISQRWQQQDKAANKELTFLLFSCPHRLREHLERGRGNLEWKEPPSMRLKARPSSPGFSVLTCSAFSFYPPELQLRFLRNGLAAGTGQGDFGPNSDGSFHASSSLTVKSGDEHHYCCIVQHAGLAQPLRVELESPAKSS
Sequence of neonatal Fc receptor (FcRn) (P61769 21-119 limits assumed, chain 2 of 2, further chain): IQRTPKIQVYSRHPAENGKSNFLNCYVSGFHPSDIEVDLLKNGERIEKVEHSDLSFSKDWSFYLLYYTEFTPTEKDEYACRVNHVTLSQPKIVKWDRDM

As for “AZ133 (A: L351Y/F405A/Y407V, B: T366L/K392M/T394W) (antibody)”, the Kd in assay [1] stood at 0.42 µM; in assay [2], 5 µM.
Consider “AZ138 (A: F405A/Y407V, B: T366L/K392M/T394W) (antibody)”, for which the dissociation constant (Kd) in assay [1] came out at 0.46 µM.
As to “AZ3002 (A: T350V/L351Y/F405A/Y407V, B: T350V/T366L/K392M/T394W) (antibody)”, the Kd in assay [3] was 1.2 µM; in assay [1], 0.46 µM; in assay [2], 4.3 µM.
For the substance “AZ3003 (A: T350V/L351Y/F405A/Y407V, B: T350V/T366L/K392L/T394W) (antibody)”, the Kd in assay [3] stood at 0.99 µM; in assay [2], 3.9 µM.
Turning to “D399C_F405A_Y407V / T366L_K392C_T394W (antibody)”, the Kd stood at 1.2 µM in assay [3] and 0.51 µM in assay [1].
In the case of F405A_Y407V / T366L_T394W (antibody), the dissociation constant (Kd) in assay [1] was 0.48 µM.
Turning to “Herceptin WT (wild-type IgG1 anti-HER-2/neu antibody)”, the Kd is 1.7 µM in assay [3] and 3.7 µM in assay [2].
Take “Q347R_T350V_L351Y_S400E_F405A_Y407V / T350V_K360E_T366L_N390R_K392M_T394W (antibody)”: the Kd was 0.92 µM in assay [3] and 0.42 µM in assay [1].
“T350V_F405A_Y407V / T350V_T366L_K392M_T394W (antibody)” showed a Kd in assay [3] of 1 µM.
As for “T350V_L351Y_S400E_F405A_Y407V / T350V_L351Y_T366L_N390R_K392M_T394W (antibody)”, the Kd in assay [3] was 0.71 µM.
“T350V_L351Y_S400E_F405A_Y407V / T350V_T366L_N390R_K392F_T394W (antibody)”: the Kd in assay [3] came to 0.71 µM.
Same read-out and setting: the same measure for “T350V_L351Y_S400E_F405A_Y407V / T350V_T366L_N390R_K392L_T394W (antibody)”: 0.91 µM.
Take “T350V_L351Y_S400E_F405A_Y407V / T350V_T366L_N390R_K392M_T394W (antibody)”: the dissociation constant (Kd) in assay [3] is 0.9 µM; in assay [1] it was 0.45 µM and 0.42 µM; in assay [2], 5 µM.
For the substance “T350V_L351Y_S400E_F405S_Y407V / T350V_T366L_N390R_K392M_T394W (antibody)”, the Kd in assay [3] came to 0.83 µM; in assay [1], 0.42 µM.
In assay [3], “T350V_L351Y_S400E_F405T_Y407V / T350V_T366L_N390R_K392M_T394W (antibody)” displayed a dissociation constant (Kd) of 0.67 µM.
Still for that read-out and setting: the same measure for “T350V_L351Y_S400R_F405A_Y407V / T350V_T366L_K392M_T394W (antibody)”: 0.89 µM; for “T350V_L351Y_S400R_F405A_Y407V / T350V_T366L_N390D_K392M_T394W (antibody)”: 0.94 µM.
With “T350V_L351Y_S400R_F405A_Y407V / T350V_T366L_N390E_K392M_T394W (antibody)”, the dissociation constant Kd in assay [3] is 0.89 µM; in assay [1], 0.42 µM.
With “T350V_S400E_F405A_Y407V / T350V_T366L_N390R_K392M_T394W (antibody)”, the Kd turned out to be 1 µM in assay [3] and 0.45 µM in assay [1].
As to “Y349C_D399C_F405A_Y407V / S354C_T366L_K392C_T394W (antibody)”, the Kd in assay [1] was 0.63 µM.
As to “Y349C_F405A_Y407V / S354C_T366L_T394W (antibody)”, the values for the Kd in assay [3] and in assay [1] were 1.2 µM and 0.58 µM, respectively.
As to “Y349C_T350V_F405A_Y407V / T350V_S354C_T366L_K392M_T394W (antibody)”, the results for the Kd in assay [1] and in assay [2] were 0.46 µM and 4.1 µM, respectively.
For “Y349C_T350V_L351Y_S400E_F405A_Y407V / T350V_S354C_T366L_N390R_K392M_T394W (antibody)”, the Kd in assay [3] was determined as 0.95 µM; in assay [1], 0.42 µM.

As a reminder, the Kd is the free concentration of one partner at which half of the binding sites on the other are occupied at equilibrium, for simple one-to-one binding. A low value points to higher affinity.
